Tests used:
Assay type in all cases: cell-based
[1] = system: γ-secretase cleavage of Notch; test: NICD immunoblotting after co-transfection of TRPC6 and Notch plasmids; details: immunoblotting 48 h after transfection, 1 ug TRPC6 and 1 ug Notch plasmids
Experimental: Cells were passaged in 12-well plate till the density approached 80%. Each well was transfected with 1 ug of TRPC6 and 1 ug of Notch plasmids using Lipofectamine 2000. Immunoblotting was used to examine the expression of Notch protein 48 h later. Wherein, NICD (notch intracellular domain) is the intracellular fragment produced by γ-secretase cleavage of Notch ΔE-myc, reflecting the level of γ-secretase cleavage of Notch.

[2] = system: γ-secretase cleavage of C99; test: C99-GVP/UAS-luciferase reporter assay with TRPC6 plasmid; details: Table 3; luciferase activity, lysed 24 hours after transfection; empty vector = 1
Experimental: HEK293APP were transfected with C99-GVP/UASLuciferase, CTRL or TRPC6 plasmids, and were lysed 24 hours later. The luciferase activities were determined using the Luciferase assay system (purchased from Promega). β-gal was co-transfected to normalize the transfection efficiency.

[3] = system: γ-secretase cleavage of C99; test: Aβ ELISA, COS7-C99 stable cells overexpressing TRPC6; details: Table 3, 1 ug plasmid, 48 h, empty vector = 1
Experimental: (§1) Upon collecting the culture medium of the cells, Aβ40 and Aβ42 levels were quantified with sandwich ELISA kit, respectively (purchased from Invitrogen). The forebrain of the mouse was dissected and separated, and then homogenized with GuHCL. After that, total Aβ was determined by ELISA. For determining TBST(Tris-Buffered Saline and 1% TritonX100, 1% SDS, 1% DOC) soluble and insoluble Aβ, upon TBST homogenation and centrifugation of the forebrain of the mouse, the supernatant was determined for TBST soluble Aβ by ELISA, and the precipitate was determined for TBST insoluble Aβ by ELISA upon another GuHCL homogenate.
(§2) HEK293APP stable cell line was cultured in DMEM culture solution (containing 200 ng/ml G418) with 10% FBS. C0S7C99 cells were cultured in MEM/F12 culture solution (containing 0.4 ug/ml hygromycin B) with 5% FBS, 1% NEAA, and 200 mM Glutamax. All the transfection was conducted by using Lipofectamin 2000 (Invitrogen).
C0S7C99 cells overexpressing TRPC6 were obtained by cell-transfection through general method 9 (n=5). The cells were passaged in 12-well plate till the density approached 80%. Each well was transfected with 1 ug plasmid using Lipofectamine 2000, and the Aβ levels in the culture medium were determined with ELISA after 48 h.

[4] = system: Aβ levels in HEK293APP stable cells; test: Aβ ELISA of culture medium, HEK293APP stable cells transfected with TRPC plasmids; details: Table 1; HEK293APP stable cell, 1 ug plasmid, medium ELISA after 48 hr; empty vector = 1
Experimental: as §1, §2
HEK293 cells were inoculated to 60 mm dishes. When the density was close to 80%, 4 ug APP plasmid was transfected with Lipofectamine 2000. After 4 h, the culture medium was replaced and 400 ng/ml of G418 was added. Cells were passage 2 days later and G418 in the culture was maintained at 400 ng/ml. After 2-3 weeks, the cells not transected died gradually, and the survived cells were HEK293 cells expressing APP. Then, G418 was reduced to and maintained at 200 ng/ml.
TRPC6 or TRPC5 was overexpressed in HEK293APP stable cell lines respectively (Cells were passaged into 12-well plates till the densities were close to 80%. Each well was transfected with 1 ug plasmid using Lipofectamine 2000, and the Aβ levels in the medium were determined with ELISA after 48 hr).
Afterwards, HEK293APP stable cells were passaged in 12-well plate till the density approached 80%. Each well was transfected with lug plasmid using Lipofectamine 2000, and the Aβ levels in the culture medium were determined with ELISA after 48 h. The targeting fragment was primarily narrowed down to 437-507aa.
The […] of TRPC6 contains the first transmembrane regions(TM1), the first extracellular loop (Loop1), and the second transmembrane regions (TM2). To further narrow down the active domain, we constructed 3 variant plasmids, with TM2 region replacement by TM1 region (C6-mut1), reversal of TM2 sequence (C6-mut2) or point mutations within TM2 region(C6-mut3). Then HEK293APP stable cells were passaged in 12-well plate. When the density was close to 80%, every well was transfected with lug plasmid using Lipofectamine 2000, and the Aβ levels in the medium were determined with ELISA after 48 h. The active fragment was further narrowed down to 487-507aa.

B1: TRPC6: transient receptor potential canonical 6 protein, overexpressed from plasmid; SEQ ID NO.:5 (protein, listed as Mus musculus)
chain: MSQSPRFVTRRGGSLKAAPGAGTRRNESQDYLLMDELGDDGYPQLPLPPYGYYPSFRGNENRLTHRRQTILREKGRRLANRGPAYMFNDHSTSLSIEEERFLDAAEYGNIPVVRKMLEECHSLNVNCVDYMGQNALQLAVANEHLEITELLLKKENLSRVGDALLLAISKGYVRIVEAILNHPAFAEGKRLATSPSQSELQQDDFYAYDEDGTRFSHDVTPIILAAHCQEYEIVHTLLRKGARIERPHDYFCKCTECSQKQKHDSFSHSRSRINAYKGLASPAYLSLSSEDPVMTALELSNELAVLANIEKEFKNDYRKLSMQCKDFVVGLLDLCRNTEEVEAILNGDAETRQPGDFGRPNLSRLKLAIKYEVKKFVAHPNCQQQLLSIWYENLSGLRQQTMAVKFLVVLAVAIGLPFLALIYWCAPCSKMGKILRGPFMKFVAHAASFTIFLGLLVMNAADRFEGTKLLPNETSTDNARQLFRMKTSCFSWMEMLIISWVIGMIWAECKEIWTQGPKEYLFELWNMLDFGMLAIFAASFIARFMAFWHASKAQSIIDANDTLKDLTKVTLGDNVKYYNLARIKWDPTDPQIISEGLYAIAVVLSFSRIAYILPANESFGPLQISLGRTVKDIFKFMVIFIMVFVAFMIGMFNLYSYYIGAKQNEAFTTVEESFKTLFWAIFGLSEVKSVVINYNHKFIENIGYVLYGVYNVTMVIVLLNMLIAMINSSFQEIEDDADVEWKFARAKLWFSYFEEGRTLPVPFNLVPSPKSLLYLLLKFKKWMCELIQGQKQGFQEDAEMNKRNEEKKFGISGSHEDLSKFSLDKNQLAHNKQSSTRSSEDYHLNSFSNPPRQYQKIMKRLIKRYVLQAQIDKESDEVNEGELKEIKQDISSLRYELLEEKSQNTEDLAELIRKLGERLSLEPKLEESRR
[1]
  NICD level (γ-secretase cleavage of NotchΔE-myc): did not affect NICD level
[2]
  C99-GVP/UAS-Luciferase reporter system: 0.4650 ± 0.02628
[3]
  Aβ40: 0.5949 ± 0.06435
  Aβ42: 0.5805 ± 0.04428
[4]
  Aβ40: 0.6839 ± 0.07359
  Aβ42: 0.6734 ± 0.06994
